In IntAct's records for PubMed 22118466:

B1: Phosphatidylinositol-binding clathrin assembly protein (Rattus norvegicus (Rat)), O55012 (parent)
chain: MSGQSLTDRITAAQHSVTGSAVSKTVCKATTHEIMGPKKKHLDYLIQCTNEMNVNIPQLADSLFERTTNSSWVVVFKSLITTHHLMVYGNERFIQYLASRNTLFNLSNFLDKSGLQGYDMSTFIRRYSRYLNEKAVSYRQVAFDFTKVKRGADGVMRTMNTEKLLKTVPIIQNQMDALLDFNVNSNELTNGVINAAFMLLFKDAIRLFAAYNEGIINLLEKYFDMKKNQCKEGLDIYKKFLTRMTRISEFLKVAEQVGIDRGDIPDLSQAPSSLLDALEQHLASLEGKKIKDSTAASRATTLSNAVSSLASTGLSLTKVDEREKQAALEEEQARLKALKEQRLKELAKKPHTSLTTAASPVSTSAGGIMTAPAIDIFSTPSSSNSTSKLPNDLLDLQQPTFHPSVHAMSAAPQVASTWGDAVDDAIPSLNPFLTKSSGDVHLPISSDVSTFTTRTPTHEMFVGFSPSPVTQPHPSAGLNVDFESVFGNKSTNVAVDSGGGLLKPTVASQNQSLPVAKLPPNKLVSDDLDSSLANLVGNLGIGNGTTKNDVSCSQPGEKKLTGGSNWQPKVAPTTAWSAATMAPPVMAYPATTPTGMIGYGIPPQMGSVPVMTQPTLIYSQPVMRPPNPFGPVPGAQIQFM
partner: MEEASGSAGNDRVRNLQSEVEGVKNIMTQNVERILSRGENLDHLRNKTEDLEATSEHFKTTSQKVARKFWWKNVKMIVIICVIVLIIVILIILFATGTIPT
B2: Vesicle-associated membrane protein 8 (Mus musculus), O70404 (parent)
chain: B1 partner
partner: B1 chain

Variants of: B1
Details: with vamp8_mouse Vamp8, O70404

Row | Variant | effect of a mutation on the interaction
1 | M244K | disrupting interaction

Variants of: B1
Details: with vamp8_mouse Vamp8, O70404
Remark: another data set of the same source

Row | Variant | effect of a mutation on the interaction
2 | L219S | disrupting interaction
3 | D224K | disrupting interaction
4 | F240A | disrupting interaction
5 | I247D | disrupting interaction
6 | L251S | disrupting interaction

Variants of: B2
Details: with pical_rat Picalm, O55012

Row | Variant | effect of a mutation on the interaction
7 | L16P;V23P | disrupting interaction
8 | K24A;M27A | disrupting interaction
